Laboratory results reported in paper PMC8048298.

Key:
[1] = molecular target: GST-SMARCA4-F4 (aa1009-1314) (human) (UniProt P51532); assay: ITC; peptide 1 mM in the syringe, protein 100 μM in the cell; 19 injections of 2 μl; PBS; 25 °C; MicroCal ITC-200
[2] = molecular target: GST-SMARCA4-F4 (aa1009-1314) (human) (UniProt P51532); assay: MST; SMARCA4 protein labelled with NT-647-NHS at 100 nM; peptides 10 nM to 500 μM; PBS pH 7.4, 0.05% Tween-20; 5 min incubation; Monolith NT.115; one-site binding (Kd formula)
[3] = molecular target: Flag-tagged SMARCA4 purified from HCT116 cells (human) (UniProt P51532); assay: as above

Kd [1]: 2.41 µM | Kd [2]: 5.36 µM | Kd [3]: 6.27 µM
Substance: histone H4 N-terminal 20 amino acid peptide, Arg3 asymmetrically dimethylated (H4R3me2a), C-terminal biotin (from UniProt P62805 2-21)
